Series [1] concerns the target T1, AtWRI1 1-302 (UniProt Q6X5Y6 1-302). As to the kind of experiment: EMSA; 15 mM HEPES-KOH pH 7.5, 7.5 mM KCl, 0.5 mM EDTA, 5% glycerol, 2 mM DTT, 1 ug/uL BSA, 0.05 ug/uL poly(dI-dC), 2 fmol/uL probe, ~1 pmol His-TCP20 in 20 uL, room temperature 30 min. Conditions: protein: recombinant; tags: N-terminal 6xHis (pNIC28-Bsa4); label: 5' biotin.
Series [2] concerns the target T2, TCP20 (UniProt Q9LSD5 1-314). The series is described as above. Conditions: protein: recombinant; tags: 6xHis (pET41a-6xHis); chain copies: 2; label: 5' biotin.
Series [3] concerns the target T1, AtWRI1 1-302. Briefly: EMSA; equal affinity to probe 1; 15 mM HEPES-KOH pH 7.5, 7.5 mM KCl, 0.5 mM EDTA, 5% glycerol, 2 mM DTT, 1 ug/uL BSA, 0.05 ug/uL poly(dI-dC), 2 fmol/uL probe, ~1 pmol His-TCP20 in 20 uL, room temperature 30 min. Particulars: protein: recombinant; tags: N-terminal 6xHis (pNIC28-Bsa4); label: 5' biotin. On the technique in general: A gel shift assay detects complexes by their altered migration in electrophoresis.

Series [4] deals with T1, AtWRI1 1-302. Briefly: EMSA; equal affinity to probe 2; 15 mM HEPES-KOH pH 7.5, 7.5 mM KCl, 0.5 mM EDTA, 5% glycerol, 2 mM DTT, 1 ug/uL BSA, 0.05 ug/uL poly(dI-dC), 2 fmol/uL probe, ~1 pmol His-TCP20 in 20 uL, room temperature 30 min. Particulars: protein: recombinant; tags: N-terminal 6xHis (pNIC28-Bsa4); label: 5' biotin.
For series [5], the target named is T2, TCP20. Briefly: EMSA; plus AtWRI1 1-302, 0.53-2.12 pmol (no reduction); 15 mM HEPES-KOH pH 7.5, 7.5 mM KCl, 0.5 mM EDTA, 5% glycerol, 2 mM DTT, 1 ug/uL BSA, 0.05 ug/uL poly(dI-dC), 2 fmol/uL probe, ~1 pmol His-TCP20 in 20 uL, room temperature 30 min. Conditions: protein: recombinant; tags: 6xHis (pET41a-6xHis); chain copies: 2; label: 5' biotin.
Series [6] concerns the target T1, AtWRI1 1-302. Briefly: EMSA; equal affinity to probe 3; 15 mM HEPES-KOH pH 7.5, 7.5 mM KCl, 0.5 mM EDTA, 5% glycerol, 2 mM DTT, 1 ug/uL BSA, 0.05 ug/uL poly(dI-dC), 2 fmol/uL probe, ~1 pmol His-TCP20 in 20 uL, room temperature 30 min. Particulars: protein: recombinant; tags: N-terminal 6xHis (pNIC28-Bsa4); label: 5' biotin.

Where a chain is given by its changes, count along the chain named.

T2 sequence (Q9LSD5 whole entry): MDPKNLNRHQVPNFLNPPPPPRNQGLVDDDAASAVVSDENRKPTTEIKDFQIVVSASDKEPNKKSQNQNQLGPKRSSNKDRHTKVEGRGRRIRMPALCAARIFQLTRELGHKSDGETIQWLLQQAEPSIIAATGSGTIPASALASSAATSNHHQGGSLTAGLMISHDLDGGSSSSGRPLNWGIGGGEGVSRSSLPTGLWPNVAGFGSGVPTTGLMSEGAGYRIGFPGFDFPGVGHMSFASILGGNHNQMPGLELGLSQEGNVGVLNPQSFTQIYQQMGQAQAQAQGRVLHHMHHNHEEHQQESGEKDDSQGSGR
T1 sequence (Q6X5Y6 1-302): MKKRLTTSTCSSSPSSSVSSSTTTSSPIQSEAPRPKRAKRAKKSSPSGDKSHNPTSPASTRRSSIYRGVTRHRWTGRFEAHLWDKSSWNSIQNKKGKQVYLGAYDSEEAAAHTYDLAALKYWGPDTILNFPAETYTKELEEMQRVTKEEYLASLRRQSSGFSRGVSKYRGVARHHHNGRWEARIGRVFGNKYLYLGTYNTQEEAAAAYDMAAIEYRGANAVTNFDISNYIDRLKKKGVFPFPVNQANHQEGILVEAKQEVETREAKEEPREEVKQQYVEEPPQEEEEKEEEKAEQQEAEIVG

B1: proGH3.3 probe 1 (dsDNA)
DNA 1: TCTAACGATAACAAACCGAGCCCACTTTTATGTCGACGTGGAATTTGGCT
DNA 2: AGCCAAATTCCACGTCGACATAAAAGTGGGCTCGGTTTGTTATCGTTAGA
As to B1, the binding result in series [1] and in series [2] was “binds” each time.

B2: proGH3.3 probe 1M (dsDNA)
DNA 1: B1 DNA 1 with G18A, C21A, C22A, C23A, C25A
DNA 2: B1 DNA 2 with G26T, G28T, G29T, G30T, C33T
For B2, the binding result in series [3] is given as “binds”; in series [2] it was “no binding”.

B3: proGH3.3 probe 2 (dsDNA)
DNA 1: ATGTCTGCCCAAAACTAGCCAAAGATTACGTGACCGCGGTCCCTCTTGTCC
DNA 2: GGACAAGAGGGACCGCGGTCACGTAATCTTTGGCTAGTTTTGGGCAGACAT
Regarding B3, the binding result in series [1] and in series [2] was “binds” throughout.

B4: proGH3.3 probe 2M (dsDNA)
DNA 1: B3 DNA 1 with G38A, G39A, C41A, C42A, C43A, C45A
DNA 2: B3 DNA 2 with G7T, G9T, G10T, G11T, C13T, C14T
On to B4, for which the binding result in series [4] is “binds”; in series [2], “no binding”.

B5: proGH3.3 probe 3 (dsDNA)
DNA 1: GACATATCAGTCCCACATGTCTGCCCAAAACTAGCCAAAGATTACGTGACC
DNA 2: GGTCACGTAATCTTTGGCTAGTTTTGGGCAGACATGTGGGACTGATATGTC
As to B5, the binding result in series [5] and in series [1] was “binds” each time.

B6: proGH3.3 probe 3M (dsDNA)
DNA 1: B5 DNA 1 with G10A, C12A, C13A, C14A, C16A
DNA 2: B5 DNA 2 with G36T, G38T, G39T, G40T, C42T
For B6, the binding result in series [6] is reported as “binds”; in series [2], “no binding”.

B7: proGH3.3 probe 4 (dsDNA)
DNA 1: CTATATATTTTTAATATTTAGGTCCCATTAAATCAGTTTGTGATTTCAGA
DNA 2: TCTGAAATCACAAACTGATTTAATGGGACCTAAATATTAAAAATATATAG
For the molecule B7, in series [5], the binding result is on record as “binds”.

B8: proGH3.3 probe 4M (dsDNA)
DNA 1: B7 DNA 1 with G21A, G22A, C24A, C25A, C26A
DNA 2: B7 DNA 2 with G25T, G26T, G27T, C29T, C30T
For the molecule B8, in series [2], the binding result was “no binding”.

(Values after article PMC8840716, “Functional Antagonism of WRI1 and TCP20 Modulates GH3.3 Expression to Maintain Auxin Homeostasis in Roots”.)
